The record followed here is the nanobody polyreactivity screen of Harvey et al. (2022).

This data set in a line: yeast display, Sf9 membrane polyspecificity reagent, FACS + sequencing; frameworks hold sequencing errors. In outline: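 A nanobody's polyreactivity label depends on the gate it was sorted from. Yeast display cells were stained with 10% biotinylated, detergent-solubilized Sf9 membrane reagent for 1 hour at 4 °C, enriched on streptavidin microbeads and sorted by FACS. The low and high (top ~1%) gates were set on anti-HA fluorescence for expression and streptavidin fluorescence for reagent binding.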
With “QVQLVESGGGLVQAGGSLRLSCAASGRIFGANAMGWYRQAPGKERELVAVITGGGGTYYADSVKGRFTISRDNSKNTVYLQINSLKPEDTAVYYCDWPRYYYTYPSHPMDYWGQGTQVTVSS”, the “polyreactivity (PSR sort gate)” value is recorded as “low polyreactivity”.
Then “QVQLVESGGGLVQAGGSLRLSCAASGRIFGAYAMGWYRPAPGKERELVAAITSRGSTNYADSVKGRFTISRDHAKNTVYLQMNSLNPEDTAVYYCARRAVYSKRRYDYWGQGTQVTVSS”, with “low polyreactivity”; and “QVQLVESGGGLVQAGGSLRLSCAASGRIFGAYAMGWYRQATGKERELVAAIRWSGARTYYADSVKGRFTISRDNAKNTVYLQMNSLKPEDTAVYYCATRQAYRPLKFDYWGQGTQVTVSS”, with “high polyreactivity”.
For “QVQLVESGGGLVQAGGSLRLSCAASGRIFGAYARGWYRQAPGKERELVAAITSAGSTHYADSVKGRFTISRDNAKNTVYLQMNSLKPEDTAVYYCAADGIARAYVLFDAYDFLYDYWGQGTQVSVSS”, the “polyreactivity (PSR sort gate)” value is “low polyreactivity”.
Then “QVQLVESGGGLVQAGGSLRLSCAASGRIFGAYTMGWYRQAPGKERELVAAISWSGGRTYYADSVKGRFTISRDNAKNTVYLQMNSVKPEDTAVYYCAASYSGRQDRYPHYDYWGQGTQVTVSS”, with “low polyreactivity”; and “QVQLVESGGGLVQAGGSLRLSCAASGRIFGDNAMGWYRQAPGKERELVATISRGGTTNYADSVKGRFTISRDNAKNTVYLQMNSLKPEDTAVYYCNARSGGHGYSRYQTYLRYDYWGQGTQVTVSS”, with “low polyreactivity”; and “QVQLVESGGGLVQAGGSLRLSCAASGRIFGDYAMGWYRQAPGKERELVAAINSSGTSTNYADSVKGRFTISRDNAKNTVYLQMNSLKPEDTAVYYCNAEGTYRPDYDSWGQGTQVTVSS”, with “low polyreactivity”.
Then “QVQLVESGGGLVQAGGSLRLSCAASGRIFGDYAMGWYRQAPGKERELVAAISWSDGSTYYADSVKGRFTISRDNAKNTVYLQMNSLKPEDTAVYYCAAYGWGYRYVDVVVSDFYYWGQGTQVTVSS”, with “low polyreactivity”.
Then “QVQLVESGGGLVQAGGSLRLSCAASGRIFGFNAMGWYRQAPGKERELVAGITDSSGRTNYADSVKGRFTISRDNAKNTVYLQMNSLKPEDTAVYYCAKDGLVIPADGSDYWGQGTQVTVSS”, with “low polyreactivity”; and “QVQLVESGGGLVQAGGSLRLSCAASGRIFGFNTMGWYRQAPGKERELVAAITSRDGRTYYADSVKGRFTISRDNAKNTVYLQMNSLKPEDTAVYYCATQYRWYAESHGLVTSVIMYSWGQGTQVTVSS”, with “low polyreactivity”; and “QVQLVESGGGLVQAGGSLRLSCAASGRIFGFYALGWYRQAPGKERELVAAITVSGSSTRYADSVKGRFTISRDNAKNTVYLQMNSLKPDDTAVYYCAASVGQFRYRYKWTFGNARMYYWGQGTQVTVSS”, with “high polyreactivity”.
Consider “QVQLVESGGGLVQAGGSLRLSCAASGRIFGFYAMGWYRQAPGKERELVAVITYRDGRTYYADSVKGRFTISRDNAKNTVYLQMNSLKPQDTAVYYCAADRGVYDPGDYWGQGTQVTVSS”, for which the “polyreactivity (PSR sort gate)” value is “low polyreactivity”.
With “QVQLVESGGGLVQAGGSLRLSCAASGRIFGFYGMGWYRQAPGKERELVAAITNRVGSTYYADSVKGRFTISRDNAKNTVYLHMHSLKPEDTAVYSCARRSGWWTRMDSWGQGTQVTVSS” the entry was “high polyreactivity”; with “QVQLVESGGGLVQAGGSLRLSCAASGRIFGGNALGWYRQAPGYARALVAAISWIGGTTYYADSVKGRFTISRDNAKNTVYLQMNSLKPEDTAVYYCAAYRYRPHVHRYYRYDYWGQGTQVTVSS”, “high polyreactivity”.
Then “QVQLVESGGGLVQAGGSLRLSCAASGRIFGGNTMGWYRQAPGKEREFVAAITQSGTRTYYADSVKGRFTISRDNAKNTVYLQMNSLKPEDTAVYYCAAEGYWYPYDYWGQGTQVTVSS”, with “high polyreactivity”.
With “QVQLVESGGGLVQAGGSLRLSCAASGRIFGGNTMGWYRQAPGKEREFVAAITQSGTRTYYADSVKGRFTISRDNAKNTVYLQRNSLKPEDTAVDYCAAEGYWYPYDYWRQGTQVTVSS” the entry was “high polyreactivity”; with “QVQLVESGGGLVQAGGSLRLSCAASGRIFGGYAMGGDRQAPGKERELVAVISGRGGSTYYADSVKGRFTISRDNAKNTVYLQMNSLKPEDTAVYYCTVYRRIQRYGPQSYDYWGQGTQVTVSS”, “high polyreactivity”; with “QVQLVESGGGLVQAGGSLRLSCAASGRIFGGYAMGWYRPAPGKERELVAAISWRGGTTYYADSVKGRFTISRDNAKNTVYLQMNSLKPEDTAVYYCNADVVRYRHWHRGDYWGQGTQVTVSS”, “low polyreactivity”.
As for “QVQLVESGGGLVQAGGSLRLSCAASGRIFGGYAMGWYRQAPGKERELVAAISSGGNTKYADSVKGRFTISRDNAKNTVYLQMNSLKPEDTAVYYCAAAPYARREYEYWGQVTQVTVSS”, the “polyreactivity (PSR sort gate)” value is “high polyreactivity”.
Regarding “QVQLVESGGGLVQAGGSLRLSCAASGRIFGGYAMGWYRQAPGKERELVAAISSSGGRTYYADSVKGRFTISRDNSKKTVYLQMNSLKPEDTAVYYCNAGAGQRVSGHSFEDWGQGTQVTVSS”, the “polyreactivity (PSR sort gate)” value was “high polyreactivity”.
As to “QVQLVESGGGLVQAGGSLRLSCAASGRIFGINAMGWYRQAPGKERELVAAINWSGGSTYYADSVKGRFTISRDNAKNTVYIQMNSLKPEDSAVYYCAAQKYKRVGYWGQGTQVTVSS”, the “polyreactivity (PSR sort gate)” value is listed as “high polyreactivity”.
Then “QVQLVESGGGLVQAGGSLRLSCAASGRIFGIYAMGGSRQAPGKERELVASITDGTITYYADSVKGRFTISRDNAKNTVYLQMNSLKPEDTAVYYCAAGTQAHAYVVRPIEMDYWGQGTQVTVSS”, with “low polyreactivity”; and “QVQLVESGGGLVQAGGSLRLSCAASGRIFGIYAMGWYRQAPGKERELVARITGGGSTNYADSVKARFTISRDNEKNTVYLQMNSLKPEDTAVYYCASTVRRIVGNITRYDYWGQGTQLTVSS”, with “low polyreactivity”; and “QVQLVESGGGLVQAGGSLRLSCAASGRIFGIYAMGWYRQAPGKERELVATITDSDDSTYYADSVKGRFTISRDNAKNTVYLQMNSLKPEDTAVYYCATAFSYGGGAYDYWGQGTQVTVSS”, with “low polyreactivity”.
With “QVQLVESGGGLVQAGGSLRLSCAASGRIFGKNAMGWYRQAPGKERELVAAISSSGGSTYYADSVKGRFTISRDNAKNTVYLQMNSLKPEDTAVYYCAAGVTRGMDYWGQGTQVTVSS” the entry was “high polyreactivity”; with “QVQLVESGGGLVQAGGSLRLSCAASGRIFGKNDMGWYRQAPGKETEFVATIDWSGGSTYYADSVKGRFTISRDNAKNTVYLQMNSLKPEDTAVYYCAASGWNRYLFDYWGQGTQVTVSS”, “low polyreactivity”; with “QVQLVESGGGLVQAGGSLRLSCAASGRIFGLNAMGWYRQAPGKEREFVAAIRWRGGSTYYADSVKGRFTISRDNAKNTVYLQMNSLKPEDTAVYYCAADRNLGVSRYGYWGQGTQVTVSS”, “high polyreactivity”.
On to “QVQLVESGGGLVQAGGSLRLSCAASGRIFGLNGMGWSRQAPGKERELVARISSVGSTYSADSVKGRFTISRDNAKNTVDLQKNSLTPEDTSVYYCNRRRSRYLPTPDRIVEYDYWGQGTQVTVSS”, for which the “polyreactivity (PSR sort gate)” value is “low polyreactivity”.
In the case of “QVQLVESGGGLVQAGGSLRLSCAASGRIFGLYAMGWYRQAPGKERELVARITRGGSTYADSVKGRFTISRDNAKNSVYLQMNSLKPEDTAVYYCNAEWIVRNSGDYEYWGQGTQVTVSS”, the “polyreactivity (PSR sort gate)” value is given as “high polyreactivity”.
“QVQLVESGGGLVQAGGSLRLSCAASGRIFGNNAMGWYRQAPGKVRELVAAIRSRGTRTYYADSVKGRFTISRDNAKNTVNLQMNSLKPEDPAVYYCATTSLTGLYDRYDYWGQGTQVTVSS”: the “polyreactivity (PSR sort gate)” value is “high polyreactivity”.
